{"source": "paper PMC8292405", "about": "“Functional expression of the eukaryotic proton pump rhodopsin OmR2 in Escherichia coli and its photochemical characterization” (Scientific Reports, 2021)", "key": {"[1]": {"target": "T1, OmR2 (O. marina rhodopsin-2) (Oxyrrhis marina, UniProt A0A0B4P477)", "T1 construct": "full-length, codon-optimized synthetic gene, C-terminal His6 tag kept; expressed in E. coli BL21(DE3) (pET21a) and in HEK293T; purified in DDM micelles", "T1 sequence (A0A0B4P477 entry or part of it)": "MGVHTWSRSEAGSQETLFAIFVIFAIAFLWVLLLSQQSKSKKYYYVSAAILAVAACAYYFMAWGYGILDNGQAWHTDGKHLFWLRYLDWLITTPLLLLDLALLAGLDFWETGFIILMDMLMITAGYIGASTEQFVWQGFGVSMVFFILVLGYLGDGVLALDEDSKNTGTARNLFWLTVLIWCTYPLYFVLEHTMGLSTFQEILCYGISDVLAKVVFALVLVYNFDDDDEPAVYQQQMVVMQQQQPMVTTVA", "assay": "absorption spectroscopy; HPLC of retinal oximes", "assay_type": "binding", "conditions": "covalent; protonated Schiff base (Lys213); 50 mM Tris-HCl pH 7.0, 1 M NaCl, 0.05% DDM"}, "Asp81": {"target": "Asp81 (UniProt position 81, YARYIDWVLTT)", "conditions": "not stated (counterion of the protonated Schiff base); cited from earlier work"}, "Asp95 [2]": {"target": "Asp95 (UniProt position 95, YARYADWLFTT)", "conditions": "not stated (counterion of the protonated Schiff base); cited from earlier work"}, "Asp85": {"target": "Asp85 (UniProt position 98, WARYADWLFTT)", "conditions": "not stated (counterion of the protonated Schiff base); cited from earlier work"}, "Asp100": {"tested_on": "Asp100", "conditions": "not stated (counterion of the protonated Schiff base); cited from earlier work"}, "Asp88": {"tested_on": "Asp88", "assay": "UV-vis", "conditions": "room temperature (approx. 25 °C), 1 M NaCl, Buffer A: 50 mM Tris-HCl, 0.05% (w/v) DDM, pH adjusted by adding HCl, Unphotolysed state under room light, all-trans retinal bound with protonated Schiff base, folded (reversibility of the spectral changes was checked)"}, "Asp97": {"target": "Asp97 (UniProt position 97, VFRYIDWLLTV)", "conditions": "not stated (counterion of the protonated Schiff base); cited from earlier work"}, "Asp95 [3]": {"target": "Asp95 (UniProt position 95, FYRYADWLLTV)", "conditions": "not stated (counterion of the protonated Schiff base); cited from earlier work"}}, "data": [{"compound": "CC1=C(/C=C/C(C)=C/C=C/C(C)=C/C=O)C(C)(C)CCC1", "note": "[all-trans retinal]", "values": [{"measurement": "absorption spectroscopy; HPLC of retinal oximes", "setting": "[1]", "result": "This indicates that OmR2 possesses all-trans retinal regardless of the light environment"}]}, {"compound": "Acetabularia rhodopsin II (ARII) (Acetabularia acetabulum)", "values": [{"measurement": "pKa", "setting": "Asp81", "result": 2.6}]}, {"compound": "Archaerhodopsin-3 (AR3) (Halorubrum sodomense)", "values": [{"measurement": "pKa", "setting": "Asp95 [2]", "result": 3.1}]}, {"compound": "Bacteriorhodopsin (BR) (Halobacterium salinarum)", "values": [{"measurement": "pKa", "setting": "Asp85", "result": 2.6}]}, {"compound": "Oxyrrhis marina rhodopsin-1 (OmR1, OR1) (Oxyrrhis marina)", "values": [{"measurement": "pKa", "setting": "Asp100", "result": 4}]}, {"compound": "Oxyrrhis marina rhodopsin-2 (OmR2) (Oxyrrhis marina)", "values": [{"measurement": "pKa", "setting": "Asp88", "result": "3.0 ± 0.04"}]}, {"compound": "Proteorhodopsin (PR, green-absorbing) (uncultured marine gamma-proteobacterium (EBAC31A08))", "values": [{"measurement": "pKa", "setting": "Asp97", "result": 7.5}]}, {"compound": "Thermophilic rhodopsin (TR) (Thermus thermophilus)", "values": [{"measurement": "pKa", "setting": "Asp95 [3]", "result": 3.4}]}]}
